Positions count from the first letter of the chain named. In names and notes the source's numbering stands.
B1: Drosophila melanogaster L-2-hydroxyglutarate dehydrogenase (dmL2HGDH), residues 41-455 (enzyme, UniProt Q9VJ28 41-455, looked up)
chain: GDYDLVVVGGGIVGAASAREIVLRHPSLKVAVLEKECKLAKHQSGHNSGVIHAGIYYKPGTLKARLCVEGMHLAYAYLDEKKIPYKKTGKLIVATDEKEVKLLKDLEKRGIANNVPDLRMIEGSEIQEIEPYCQGVMALHSPHTGIVDWGLVTEHYGQDFKQCGGDIYLDFNVSKFTETKEGTDYPVTIHGAKPGQTVRTKNVLTCGGLQSDLLAEKTGCPRDPRIVPFRGEYLLLTKEKQHMVKGNIYPVPDPRFPFLGVHFTPRMDGSIWLGPNAVLALKREGYTWGDINLFELFDALRYPGFVKMASKYIGFGLSEMSKSWFINLQIKALQKYIPDITEYDIQRGPAGVRAQAMDLDGNLVDDFVFDRGQGSGALAKRVLHCRNAPSPGATSSLAIAKMIADKIENEFSIGK
notes: L-2-hydroxyglutarate dehydrogenase, Drosophila melanogaster, residues 41-455; the N-terminal 1 to 40 residues (mitochondrial-targeting peptide) removed; Gene synthesized by Sangon Biotech; also called WT dmL2HGDH; truncated dmL2HGDH; source: E. coli BL21 Codon-Plus (DE3)-RIPL, purified (Ni-NTA, tag removal by ULP1, Superdex 200); not shown: His6, N-terminal, cleaved; SUMO, N-terminal, cleaved
B2: dmL2HGDH (Drosophila melanogaster; R393A) (protein)
chain: B1 chain with R353A
notes: residues 41-455, mitochondrial-targeting peptide (1-40) removed; N-terminal His6-SUMO tag cleaved by ULP1; E. coli; tetramer about 178 kDa
B3: dmL2HGDH (Drosophila melanogaster; S88A) (protein)
chain: B1 chain with S48A
notes: as for B2

What was measured:
[1] = target: dmL2HGDH with Cys77 substituted by alanine (Drosophila melanogaster) (UniProt Q9VJ28); test: not stated; tetrameric state of the Cys77 to alanine mutant in solution (Fig. S11E)
[2] = target: T1, dmL2HGDH (Drosophila melanogaster, UniProt Q9VJ28); test: inhibition of L-2-HG oxidation, DCIP reduction at […] nm; assay type: biochemical; settings: read-out: % inhibition at 10 mM
T1 construct: gene L2HGDH; residues 41-455, mitochondrial-targeting peptide (1-40) removed; N-terminal His6-SUMO tag cleaved by ULP1; E. coli; tetramer about 178 kDa

[3] = target: T1, dmL2HGDH; test: crystal structure, […] Å; absorbance at […] nm; assay type: binding; settings: FAD co-purified from E. coli expression
[4] = target: the molecule itself; test: SEC-MALS; protein solution 2 mg/ml on Superdex 200 10/300; 20 mM Hepes pH 7.4, 200 mM NaCl; 0.4 ml/min
[5] = substrate: O=C(O)CC[C@H](O)C(=O)O; test: purified protein; assay type: biochemical, Drosophila melanogaster; settings: 200 μM phenazine methosulfate, 100 μM DCIP, 50 mM Hepes pH 7.5, about 25 °C, corrected for FAD occupancy

Molecule | Km [5] [µM] | Vmax [5] [µmol/min/mg] | kcat [5] [s⁻¹] | kcat/Km [5] [M⁻¹ s⁻¹] | further results
dmL2HGDH with Cys77 substituted by alanine (from UniProt Q9VJ28 41-455) (enzyme) | – | – | – | – | stoichiometry N [1]: 4
O=C(O)C[C@H](O)C(=O)O [L-MAL] | – | – | – | – | inhibition at 10000 µM [2]: < 30%
Cc1cc2nc3c(=O)[nH]c(=O)nc-3n(C[C@H](O)[C@H](O)[C@H](O)COP(=O)(O)OP(=O)(O)OC[C@H]3O[C@@H](n4cnc5c(N)ncnc54)[C@H](O)[C@@H]3O)c2cc1C [FAD] | – | – | – | – | crystal structure, 2.85 Å; absorbance at 450 nm [3]: In each monomer, there are an FAD bound at the active site
B1 | 130 ± 8 | 10.2 | 7.76 ± 0.11 | 59700 | stoichiometry N [4]: 4
B2 | 240 ± 30 | 5.68 | 4.34 ± 0.15 | 18100 | –
B3 | 560 ± 150 | 1.56 | 1.19 ± 0.13 | 2130 | –
